Data: patent publication US20250206818A1 (AGENUS, published 2025)

T1: human LAG-3 expressed on cells (human, UniProt P18627 23-525)
T1 construct: whole, on cells; also called CD223
T1 sequence (looked up): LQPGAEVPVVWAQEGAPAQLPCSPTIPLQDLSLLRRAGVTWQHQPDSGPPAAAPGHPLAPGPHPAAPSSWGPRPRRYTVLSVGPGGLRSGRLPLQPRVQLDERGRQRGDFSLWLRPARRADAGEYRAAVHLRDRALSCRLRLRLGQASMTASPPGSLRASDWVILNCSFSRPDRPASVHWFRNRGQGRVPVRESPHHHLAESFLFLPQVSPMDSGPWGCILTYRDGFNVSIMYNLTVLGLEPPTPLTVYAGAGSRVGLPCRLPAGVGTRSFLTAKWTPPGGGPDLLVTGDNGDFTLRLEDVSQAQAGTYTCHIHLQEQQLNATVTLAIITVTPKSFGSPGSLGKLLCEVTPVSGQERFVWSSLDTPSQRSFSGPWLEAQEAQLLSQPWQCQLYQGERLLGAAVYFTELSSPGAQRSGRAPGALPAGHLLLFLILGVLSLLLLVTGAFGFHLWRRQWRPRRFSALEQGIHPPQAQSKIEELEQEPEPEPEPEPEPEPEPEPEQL

T2: human LAG-3 (human, UniProt P18627 23-450, limits assumed)
T2 construct: Selections used human LAG-3-Fc, human LAG-3-6His, a 30 aa LAG-3 peptide and/or cells with cynomolgus LAG-3; also called CD223
T2 sequence (looked up): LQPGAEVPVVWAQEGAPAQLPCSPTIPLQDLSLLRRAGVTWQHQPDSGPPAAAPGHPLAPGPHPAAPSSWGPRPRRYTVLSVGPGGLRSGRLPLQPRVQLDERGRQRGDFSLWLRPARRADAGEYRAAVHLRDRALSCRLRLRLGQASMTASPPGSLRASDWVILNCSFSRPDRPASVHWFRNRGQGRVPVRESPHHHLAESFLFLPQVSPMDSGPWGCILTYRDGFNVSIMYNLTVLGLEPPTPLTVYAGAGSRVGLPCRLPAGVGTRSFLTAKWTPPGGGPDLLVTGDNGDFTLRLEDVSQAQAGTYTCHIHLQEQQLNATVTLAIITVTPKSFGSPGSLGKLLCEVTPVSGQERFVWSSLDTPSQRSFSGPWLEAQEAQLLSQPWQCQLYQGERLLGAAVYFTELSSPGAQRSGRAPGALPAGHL


What was measured:
[1] = molecular target: T1, human LAG-3 expressed on cells; test: flow cytometry, Fab periplasmic extract on Jurkat cells expressing human LAG-3 (FIGS. 1A-1C)
Procedure: The anti-LAG-3 Fabs from periplasmic extracts were tested for binding to LAG-3-expressing cells using flow cytometry. Briefly, wild type and human LAG-3-expressing Jurkat cells were plated at 2×10⁵ cells/well in sample buffer (PBS (Gibco, Cat #10010-015)+0.5% FBS (Gibco, Cat #10270-106)) in 96-well U-bottom plates (Sarstedt). 22 μl of anti-LAG-3 Fab periplasmic extract and 83 μl of diluted anti-c-myc antibody (Gentaur, Clone #9E10, Cat #04-cmyc-9E10) were incubated for 30 minutes at room temperature. 100 μl of the periplasmic extract/anti-c-myc mixture was added to cells and then incubated for one hour on ice. Cells were washed three times and then incubated with a goat anti-mouse APC (BD Biosciences, Cat #550826) for 30 minutes on ice. Cells were washed three times and then analyzed with a FACS machine (BD Accuri6).

human LAG-3 = molecular target: T2, human LAG-3; test: Fab phage display selection; periplasmic extracts screened by ELISA or flow cytometry
Description: Anti-LAG-3 antibodies were identified by generation and selection of an immunized Fab phage display library. […] Per mouse, a Fab library was then generated by random-primed cDNA using total RNA as a template to amplify variable regions from mouse antibody genes. Heavy and kappa chain amplicons were combined and cloned into phagemid vectors. […] The 30 amino acid human LAG-3 peptide is a biotinylated peptide comprising the amino acid sequence of […] (SEQ ID NO: 199). Periplasmic extracts of selected Fab clones were then screened by ELISA or flow cytometry. Antibody sequencing and off-rate analysis were then performed on anti-LAG-3 Fabs.

Row | Binder | binding result [1] | binding result (human LAG-3)
1 | P13G05 Fab (Fab, V domains shown, Murine Fab, periplasmic extract) VH: QVQLQQSGAELVKPGASVELSCTASGFNIRDTYMYWVKQRPEQGLEWIGRIDPANGNTKFDPKFQDRATMTADTSSNTAYLQLSSLTSEDTAVYYCTTYFYRYDVGGFDYWGQGTTLTVS VL: EIVLTQSPALMAASPGEKVTITCSVSSSISSSNLHWYQQKSGTSPKLWIYGTSNLASGVPVRFSGSGSGTSYSLTISSMEAEDAATYYCQQWSSYPFTFGSGTKLEIK | binds | binds
2 | P01A12 Fab (Fab, V domains shown, Murine Fab, periplasmic extract) VH: EVQLQQSGAELVKPGASVKLSCTASGFNIKDTYMYWVKQRPEQGLDWIGRIDPANGNTKFDPKFQGKATITADTSSNTAYLQLSSLTSEDTAVYYCSTYYYRYDVGGFDYWGQGTTLTVS VL: DIVLTQSPALMAASPGEKVTITCSVSSSISSSNLHWYQQKSGTSPKLWIYGTSNLASGVPVRFSGSGSGTSYSLTISSMEAEDAATYYCQQWSSYPFTFGSGTKLEIK | binds | binds
3 | P13B01 Fab (Fab, V domains shown, Murine Fab, periplasmic extract) VH: EVQLQQSGAELVKPGASVKLSCTASGFNIKDTYIYWVKQRPERGLEWIGRIDPANGNTKFDPKFQGTATITADTSSNTAYLQLSSLTSEDTAVYYCTTYFYRYDVGGFDYWGQGTTLTVS VL: ENVLTQSPALMAASPGEKVTITCSVSSSISSSNLHWYQQKSGTSPKLWIYGTSNLASGVPVRFSGSGSGTSYSLTISSMEAEDAATYYCQQWSSYPFTFGSGTKLEIK | binds | binds
4 | P13C06 Fab (Fab, V domains shown, Murine Fab, periplasmic extract) VH: QVQMKQSGAELVKPGASVELSCTASGFNITDTYMYWVKQRPEQGLEWIGRIDPANGNTKFDPKFQDRATMTADTSSNTAYLQLSSLTSEDTAVYYCTTYFDKYDVGGCDYWGQGTTLTVS VL: EIVLTQSPALMAASPGEKVTITCSVSSSISSSNLYWFQHKSGTSPKLWIYGTSNLASGVPVRFSGSGSGTSYSLTISSMDAENAATYYCQQWRSYPFTFGSGTKLEIK | binds | binds
5 | P14G01 Fab (Fab, V domains shown, Murine Fab, periplasmic extract) VH: QVQLKESGAELVKPGASVELSCTASGFNIRDTYMYWVKQRPEQGLEWIGRIDPANGNTKFDPKFQDRATMTADTSSNTAYLQLSSLTSEDTAVYYCTTYFYRYDVGGFDYWGQGTTLTVS VL: DIVLTQSPALMAASPGEKVTITCSVSSSISSSNLHWFQQKSGTSPKLWIYGTSNLASGVPVRFSGSGSGTSYSLTISSMEAEDAATYYCQQWSSYPFTFGSGTKLEIK | binds | binds
6 | P16D04 Fab (Fab, V domains shown, Murine Fab, periplasmic extract) VH: QVQLQQSGAELVKPGASVELSCTASGFNIRDTYMYWVKQRPEQGLEWIGRIDPANGNTKFDPKFQDRATMTADTSSNTAYLQLSSLTSEDTAVYYCTTYFYRYDVGGFDYWGQGTTLTVS VL: ENVLTQSPALMAASPGEKVTITCSVSSSISSSNLHWYQQKSGTSPKLWIYGTSNLASGVPVRFSGSGSGTSYSLTISSMEAEDAATYYCQQWSSYPLTFGAGTKLELK | binds | binds
7 | P14F01 Fab (Fab, V domains shown, Murine Fab, periplasmic extract) VH: QVQLQQSGAELVKPGASVELSCTASGFNIRDTYMYWVKQRPEQGLEWIGRIDPANGNTKFDPKFQDRATMTADTSSNTAYLQLSSLTSEDTAVYYCTTYFYRYDVGGFDYWGQGTTLTVS VL: ENVLTQSPALMAASPGEKVTITCSVSSSISSSNLHWYQQKSGTSPKLWIYGTSNLASGVPVRFSGSGSGTSYSLTISSMEAEDAATYYCQQWSTYPFTFGSGTKLEIK | binds | binds
8 | P13G04 Fab (Fab, V domains shown, Murine Fab, periplasmic extract) VH: EVKLMESGAELVKPGASAELSCTASGFNIRDTYMYWVKQRPEQGLEWIGRIDPANGNTKFDPKFQDRATMTADTSSNTAYLQLSSLTSEDTAVYYCTTYFYRYDVGGFDYWGQGTTLTVS VL: ENVLTQSPALMAASPGEKVTITCSVSSSISSSNLHWFQQKSGTSPKLWIYGTSNLASGVPVRFSGSGSGTSYSLTISSMEAEDAATYYCQQWSSYPFTFGSGTKLEIK | binds | binds
9 | P13A04 Fab (Fab, V domains shown, Murine Fab, periplasmic extract) VH: QVQLQQPGAELVKPGASVELSCTASGFNIRDTYMYWVKQRPEQGLEWIGRIDPANGNTKFDPKFQDRATMTADTSSNTAYLQLSSLTSADTAVYYCTTYFYRYDVGGFDYWGQGTTLTVS VL: DIVLTQSPALMAASPGEKVTITCSVSSSISSSNLHWYQQKSGTSPKLWIYGTSNLASGVPVRFSGSGSGTSYSLTISNMEAEDAATYYCQQWSSYPFTFGSGTKLEIK | binds | binds
10 | P15G05 Fab (Fab, V domains shown, Murine Fab, periplasmic extract) VH: EVQLQQSGAELVKPGASVELSCTASGFNIRDTYMYWVKQRPEQGLEWIGRIDPANGNTKFDPKFQDRATMTADTSSNTAYLQLSSLTSEDTAVYYCTTYFYRYDVGGFDYWGQGTTLTVS VL: EIVLTQSPALMAASPGEKVTITCSVSSSISSSNLHWYQQKSGTSPKLWIYGTSNLASGVPVRFSGSGSGTSYSLTISSMEAEDAATYYCQQWSSYPLTFGAGTKLELK | binds | binds
11 | P13C10 Fab (Fab, V domains shown, Murine Fab, periplasmic extract) VH: QVQLQQSGAELVKPGASVELSCTASGFNIRDTYMYWVKQRPEQGLEWIGRIDPANGNTKFDPKFQDRATMTADTSSNTAYLQLSSLTSEDTAVYYCTTYFYRYDVGGFDYWGQGTTLTVS VL: ENVLTQSPALMAASPGEKVTITCSVSSSISSSNLHWFQQKSGTSPKLWIYGTSNLASGVPVRFSGSGSGTSYSLTISSMEAEDAATYYCQQWSSYPFTFGSGTKLEIK | binds | binds
12 | P13F06 Fab (Fab, V domains shown, Murine Fab, periplasmic extract) VH: QVQLQQSGAELVKPGASVELSCTASGFNIRDTYMYWVKQRPEQGLEWIGRIDPANGNTKFDPKFQDRATMTADTSSNTAYLQLSSLTSEDTAVYYCTTYFYRYDVGGFDYWGQGTTLTVS VL: EILLTQSPALMAASPGEKVTITCSVSSSISSSNLHWYQQKSGTSPKLWIYGTSNLASGVPVRFSGSGSGTSYSLTISSMEAEDAATYYCQQWSSYPFTFGSGTKLEIK | binds | binds
13 | P13D05 Fab (Fab, V domains shown, Murine Fab, periplasmic extract) VH: QVQLQQPGAELVKPGASVELSCTASGFNIRDTYMYWVKQRPEQGLGWIGRIDPANGNTKFDPKFQDRATMTADTSSNTAYLQLSSLTSEDTAVYYCTTYFYRYDVGGFDYWGQGTTLTVS VL: EIVLTQSPALMAASPGEKVTITCSVSSSISSSNLHWFRQKSGTSPKLWIYGTSNLASGVPVRFSGSGSGTSYSLTISSMEAEDAATYYCQQWSSYPFTFGSGTKLEIK | binds | binds
14 | P13G01 Fab (Fab, V domains shown, Murine Fab, periplasmic extract) VH: EVQLQQSGAELVKPGASVELSCTASGFNIRDTYMYWVKQRPEQGLEWIGRIDPANGNTKFDPKFQDRATMTADTSSNTAYLQLSSLTSEDTAVYYCTTYFYRYDVGGFDYWGQGTTLTVS VL: QIVLTQSPALMAASPGEKVTITCSVSSSISSSNLHWYQQKSGTSPKLWIYGTSNLASGVPVRFSGSGSGTSYSLTISSMEAEDAATYYCQQWSSYPFTFGSGTKLEIK | binds | binds
15 | P15C02 Fab (Fab, V domains shown, Murine Fab, periplasmic extract) VH: QVQLQQSGAELVKPGASVELSCTASGFNIRDTYMYWVKQRPEQGLEWIGRIDPANGNTKFDPKFQDRATMTADTSSNTAYLQLSSLTSEDTAVYYCTTYFYRYDVGGFDYWGQGTTLTVS VL: DVVMTQTPALMAASPGEKVTITCSVSSSISSSNLHWYQQKSGTSPKLWIYGTSNLASGVPVRFSGSGSGTSYSLTISSMEAEDAATYYCQQWSSYPFTFGSGTKLEIK | binds | binds
